Data on 5 substances can be found in patent publication US7858298.

In assay [1] the target is human CCR5 expressed on the cell surface (human) (UniProt P51681). Description: cell-based or functional assay.
Assay [2] concerns the target CD4 on CD4+ target cells (human) (UniProt P01730). Nature of the assay: cell-based or functional assay.

Sequence of recombinant human RANTES (P13501 24-91): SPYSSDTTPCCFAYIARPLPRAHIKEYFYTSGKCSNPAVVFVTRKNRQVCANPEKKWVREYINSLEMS
Sequence of recombinant human MIP-1β (P13236 24-92 limits assumed): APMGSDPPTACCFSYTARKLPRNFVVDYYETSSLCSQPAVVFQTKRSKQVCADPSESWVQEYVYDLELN
Sequence of recombinant human MIP-1α (P10147 27-92 limits assumed): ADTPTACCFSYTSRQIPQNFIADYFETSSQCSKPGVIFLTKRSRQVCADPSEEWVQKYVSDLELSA

In assay [1], RANTES + MIP-1α + MIP-1β gave a % Fusion (RET assay), LW5 CD4+ cells with HeLa-JR-FL cells; R/Mα/Mβ 106/533/133 ng/ml of 39%; a % Fusion (RET assay), PM1 cells with HeLa-JR-FL cells; R/Mα/Mβ 80/400/100 ng/ml of 1%; a % luciferase activity, entry of ADA env-complemented virus into PM1 cells; R/Mα/Mβ 50/50/50 ng/ml of 3%; a % luciferase activity, entry of BaL env-complemented virus into PM1 cells; R/Mα/Mβ 50/50/50 ng/ml of 2%. In assay [1], this substance showed a % luciferase activity, entry of JR-FL env-complemented virus into LW4 CD4+ T-cells; R/Mα/Mβ 200/200/200 ng/ml of 14%; a % luciferase activity, entry of JR-FL env-complemented virus into LW5 CD4+ T-cells; R/Mα/Mβ 200/200/200 ng/ml of 15%; a luciferase activity, ADA entry into 3T3-CD4 cells expressing CKR-5, with R/Mα/Mβ 400 ng/ml each (28400 without) (luciferase activity (unit not given)) of 1220; a luciferase activity, ADA entry into COS-CD4 cells expressing CKR-5, with R/Mα/Mβ 400 ng/ml each (153000 without) (luciferase activity (unit not given)) of 3210. Moreover, in assay [1], the luciferase activity, ADA entry into HeLa-CD4 cells expressing CKR-5, with R/Mα/Mβ 400 ng/ml each (310000 without) (luciferase activity (unit not given)) was determined as 6340; the luciferase activity, BaL entry into 3T3-CD4 cells expressing CKR-5, with R/Mα/Mβ 400 ng/ml each (11700 without) (luciferase activity (unit not given)) came out at 756; the luciferase activity, BaL entry into COS-CD4 cells expressing CKR-5, with R/Mα/Mβ 400 ng/ml each (58800 without) (luciferase activity (unit not given)) turned out to be 756; the luciferase activity, BaL entry into HeLa-CD4 cells expressing CKR-5, with R/Mα/Mβ 400 ng/ml each (104000 without) (luciferase activity (unit not given)) stood at 750.
In assay [2], monoclonal antibody OKT4A displayed a % Fusion (RET assay), LW5 CD4+ cells with HeLa-BRU cells; OKT4A 3 ug/ml of 0% and a % Fusion (RET assay), LW5 CD4+ cells with HeLa-JR-FL cells; OKT4A 3 ug/ml of 0%.
In assay [1], “recombinant human MIP-1α (from UniProt P10147 27-92) (ligand)” came in with a % Fusion (RET assay), LW5 CD4+ cells with HeLa-JR-FL cells; MIP-1α 533 ng/ml of 72%; a % Fusion (RET assay), PM1 cells with HeLa-JR-FL cells; MIP-1α 400 ng/ml of 39%; a % luciferase activity, entry of ADA env-complemented virus into PM1 cells; MIP-1α 100 ng/ml of 54%; a % luciferase activity, entry of BaL env-complemented virus into PM1 cells; MIP-1α 100 ng/ml of 54%.
In assay [1], “recombinant human MIP-1β (from UniProt P13236 24-92) (ligand)” showed a % Fusion (RET assay), LW5 CD4+ cells with HeLa-JR-FL cells; MIP-1β 133 ng/ml of 44%; a % Fusion (RET assay), PM1 cells with HeLa-JR-FL cells; MIP-1β 100 ng/ml of 13%; a % luciferase activity, entry of ADA env-complemented virus into PM1 cells; MIP-1β 100 ng/ml of 6%; a % luciferase activity, entry of BaL env-complemented virus into PM1 cells; MIP-1β 100 ng/ml of 1%.
In assay [1], “recombinant human RANTES (from UniProt P13501 24-91) (ligand)” gave a % Fusion (RET assay), LW5 CD4+ cells with HeLa-JR-FL cells; RANTES 106 ng/ml of 65%; a % Fusion (RET assay), PM1 cells with HeLa-JR-FL cells; RANTES 80 ng/ml of 8%; a % luciferase activity, entry of ADA env-complemented virus into PM1 cells; RANTES 100 ng/ml of 1%; a % luciferase activity, entry of BaL env-complemented virus into PM1 cells; RANTES 100 ng/ml of 1%.
